Measurements as given in patent publication US11857697B2, “Compositions and methods for obtaining 3-dimensional lung-like epithelium and related uses thereof” (THE REGENTS OF THE UNIVERSITY OF MICHIGAN, priority 2017, dated 2024).
“Also recorded” adds a separate entry of the source.

B1: Recombinant Human Fibroblast Growth Factor 10 (protein, UniProt O15520 38-208, looked up)
Fibroblast growth factor 10: QALGQDMVSPEATNSSSSSFSSPSSAGRHVRSYNHLQGDVRWRKLFSFTKYFLKIEKNGKVSGTKKENCPYSILEITSVEIGVVAVKAINSNYYLAMNKKGKLYGSKEFNNDCKLKERIEENGYNTYASFNWQHNGRQMYVALNGKGAPRRGQKTRRKNTSAHFLPMVVHS

How the values were obtained:
[1] = test system: 12 week human fetal distal epithelial lung buds; test: Isolated human fetal lung bud culture in Matrigel: growth/expansion; type: cell-based; conditions: FGF10 500 ng/mL
Source text: All research utilizing human fetal tissue was approved by the University of Michigan institutional review board. Normal human fetal lungs were obtained from the University of Washington Laboratory of Developmental Biology, and epithelial lung buds were dissected as described below. All experiments were repeated using tissues from 3 individual lungs; 84 day post fertilization of unknown gender, 87 day post fertilization male, and 87 day post fertilization of unknown gender. All tissues were shipped in Belzer's solution at 4 degrees Celsius and were processed and in culture within 24 hours of isolation.
(§1) Isolated mouse buds were cultured in 4-6 μl droplets of matrigel, covered with media, and kept at 37 degrees Celsius with 5% Carbon Dioxide. Isolated human fetal lung buds were cultured in 25-50 μl droplets of matrigel, covered with media, and kept at 37 degrees Celsius with 5% Carbon Dioxide.
Distal regions of 12 week fetal lungs were cut into ˜2 mm sections and incubated with dispase, 100% FBS and then 10% FBS as described above, and moved to a sterile petri dish. Mesenchyme was removed by repeated pipetting of distal lung pieces after dispase treatment. Buds were washed with DMEM until mesenchymal cells were no longer visible in the media. Buds were then moved to a 1.5 mL eppendorf tube containing 200 uL of Matrigel, mixed using a p200 pipette, and plated in ˜20 uL droplets in a 24 well tissue culture plate. Plates were placed at 37 degrees Celsius with 5% CO2 for 20 minutes while droplets solidified. 500 uL of media was added to each well containing a droplet. Media was changed every 2-3 days.
All mouse bud, human fetal bud, and hPSC-derived human lung organoids were grown in low-serum basal media (basal media) with added growth factors. […]

[2] = test system: E13.5 mouse distal epithelial lung buds; test: Isolated E13.5 mouse distal lung bud culture in Matrigel droplet: growth/expansion; type: cell-based; conditions: FGF10 500 ng/mL (50-fold excess), up to 5 days
Experimental: as §1
Mouse buds were dissected from E13.5 embryos. For experiments using Sox9CreER; Rosa^Tomato/Tomato mice, 50 ug/g of tamoxifen was dissolved in corn oil and given by oral gavage on E12.5, 24 hours prior to dissection. Briefly, in sterile environment, whole lungs were placed in 100% dispase (Corning Cat#354235) on ice for 30 minutes. Lungs were then transferred using a 25 uL wiretrol tool (Drummond Scientific Cat#S5-000-2050) to 100% FBS (Corning Cat#35-010-CV) on ice for 15 minutes, and then transferred to a solution of Dulbecco's Modified Eagle Medium: Nutrient Mixture F12 (DMEM/F12, ThermoFisher SKU#12634-010) with 10% FBS and 1× Pennicillin-Streptomycin (ThermoFisher Cat#15140122) on ice. To dissect buds, a single lung or lung lobe was transferred by wiretrol within a droplet of media to a 100 mm sterile petri dish. Under a dissecting microscope, the mesenchyme was carefully removed and epithelial bud tips were torn away from the bronchial tree using tungsten needles (Point Technologies, Inc.). Care was taken to remove the trachea and any connective tissue from dissected lungs. Isolated bud tips were picked up using a p20 pipette and added to an eppendorf tube with cold Matrigel (Corning Ref#354248) on ice. The buds were picked up in a p20 pipette with 4-6 uL of Matrigel and plated on a 24-well tissue culture well (ThermoFisher Cat#142475). The plate was moved to a tissue culture incubator and incubated for 5 minutes at 37 degrees Celsius and 5% CO2 to allow the Matrigel droplet to solidify. 500 uL of media was then added to the dish in a laminar flow hood. Media was changed every 2-3 days.
All mouse bud, human fetal bud, and hPSC-derived human lung organoids were grown in low-serum basal media (basal media) with added growth factors. Basal media consisted of Dulbecco's Modified Eagle Medium: Nutrient Mixture F12 (DMEM/F12, ThermoFisher SKU#12634-010) supplemented with 1× N2 supplement (ThermoFisher Catalog#17502048) and […] B27 supplement (ThermoFisher Catalog#17504044), along with 2 mM Glutamax (ThermoFisher Catalog#35050061), 1× Pennicillin-Streptomycin (ThermoFisher Cat#15140122) and 0.05% Bovine Serum Albumin (BSA; Sigma product# A9647). BSA was weighed and dissolved in DMEM F/12 media before being passed through a SteriFlip 0.22 uM filter (Millipore Item# EW-29969-24) and being added to basal media. Media was stored at 4 degrees Celsius for up to 1 month. On the day of use, basal media was aliquoted and 50 ug/mL Ascorbic acid and 0.4 uM Monothioglycerol was added. […]

Molecule | Tissue expansion / cyst formation of bud tips ([1]; Y27632 10 uM) | Growth of human fetal lung buds ([1]; compared to basal media) | Bud growth [2]
C[C@@H](N)[C@H]1CC[C@H](C(=O)Nc2ccncc2)CC1 [Y27632, reference compound] | in combination with FGF10, but not alone, promoted growth of buds into larger cyst-like structures; also recorded: did not lead to tissue expansion |  | 
B1 |  | only modest growth; also recorded: expansion of the tissue was not robust | modest growth of buds
